{"source": "paper PMC4452855", "origin": "cited, not measured here", "target": "IFN-λ1 (Homo sapiens) (UniProt Q8IU54)", "sequence (Q8IU54 20-200)": "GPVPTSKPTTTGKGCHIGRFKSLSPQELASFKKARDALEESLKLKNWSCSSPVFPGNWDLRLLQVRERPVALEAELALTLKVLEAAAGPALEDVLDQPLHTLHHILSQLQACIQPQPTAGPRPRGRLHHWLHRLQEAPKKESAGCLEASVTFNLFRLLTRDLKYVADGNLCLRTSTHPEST"}
{"substance": "sIFN-λR1 short splice variant (from UniProt Q8IU57)", "values": [{"measurement": "Kd", "result": 73, "unit": "nM"}]}
